Data from the supplement of paper PMC9112550, “Optimization of the antimicrobial peptide Bac7 by deep mutational scanning” (BMC Biology, 2022).

system: Escherichia coli TOP10; experiment: shrunken log2 fold change of peptide-encoding DNA abundance (4.5 h post-induction vs induction); higher = less antimicrobial activity (less host growth inhibition); settings: time post-induction: 4.5 h; library: site-saturation at positions 5, 18, 19, 20
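Further: peptides expressed intracellularly from a pBAD plasmid library in pooled LB shake-flask culture, induced with 0.3% L-arabinose, DNA abundance read by NGS, three biological replicates, DESeq2 with apeglm shrinkage.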

Sequence	shrunken log2 fold change
RRIRFRPPRLPRPRPRPEHHPRP	-0.306
RRIRQRPPRLPRPRPRPSNLPRP	-0.11
RRIRQRPPRLPRPRPRPYSEPRP	0.0294
RRIRDRPPRLPRPRPRPHFQPRP	-0.236
RRIRGRPPRLPRPRPRPYYWPRP	-0.25
RRIRRRPPRLPRPRPRPTRCPRP	0.661
RRIRGRPPRLPRPRPRPWNSPRP	-0.00154
RRIRDRPPRLPRPRPRPCAKPRP	0.244
RRIRIRPPRLPRPRPRPNVTPRP	-0.149
RRIRIRPPRLPRPRPRPNFQPRP	-0.417
RRIRERPPRLPRPRPRPSYLPRP	-1.2
RRIRDRPPRLPRPRPRPPNDPRP	0.14
RRIRHRPPRLPRPRPRPGCPPRP	-0.0112
RRIRHRPPRLPRPRPRPKKDPRP	-0.494
RRIRERPPRLPRPRPRPVRHPRP	0.131
RRIRWRPPRLPRPRPRPITFPRP	-0.232
RRIRQRPPRLPRPRPRPYRPPRP	-0.103
RRIRQRPPRLPRPRPRPWHAPRP	-0.106
RRIRWRPPRLPRPRPRPFCYPRP	-0.418
RRIRYRPPRLPRPRPRPQCDPRP	-0.529
RRIRIRPPRLPRPRPRPKLDPRP	-0.106
RRIRNRPPRLPRPRPRPFRKPRP	-0.0467
RRIRIRPPRLPRPRPRPMLHPRP	-0.749
RRIRERPPRLPRPRPRPVGFPRP	0.0681
RRIRMRPPRLPRPRPRPRDEPRP	1.43

Sequence	shrunken log2 fold change
RRIRMRPPRLPRPRPRPLVMPRP	0.0504
RRIRERPPRLPRPRPRPASPPRP	-0.165
RRIRFRPPRLPRPRPRPCVAPRP	-0.201
RRIRVRPPRLPRPRPRPRCMPRP	-0.23
RRIRHRPPRLPRPRPRPDDRPRP	-0.144
RRIRARPPRLPRPRPRPSTVPRP	0.123
RRIRGRPPRLPRPRPRPCSQPRP	0.19
RRIRLRPPRLPRPRPRPFYCPRP	-0.472
RRIRRRPPRLPRPRPRPPRDPRP	1.48
RRIRHRPPRLPRPRPRPTQYPRP	0.124
RRIRTRPPRLPRPRPRPIGVPRP	-0.0262
RRIRYRPPRLPRPRPRPVQMPRP	-0.0524
RRIRYRPPRLPRPRPRPPYLPRP	-0.985
RRIRPRPPRLPRPRPRPWEGPRP	0.0632
RRIRMRPPRLPRPRPRPVSLPRP	0.422
RRIRARPPRLPRPRPRPICHPRP	0.0398
RRIRARPPRLPRPRPRPGDVPRP	0.194
RRIRSRPPRLPRPRPRPIYLPRP	-0.336
RRIRWRPPRLPRPRPRPHRLPRP	-0.0123
RRIRVRPPRLPRPRPRPCEMPRP	1.45
RRIRDRPPRLPRPRPRPNSEPRP	0.261
RRIRPRPPRLPRPRPRPMKPPRP	0.00333
RRIRHRPPRLPRPRPRPQTGPRP	-0.169
RRIRCRPPRLPRPRPRPCTWPRP	-0.0985
RRIRHRPPRLPRPRPRPNYFPRP	-0.125

Sequence	shrunken log2 fold change
RRIRLRPPRLPRPRPRPNIDPRP	-0.213
RRIRLRPPRLPRPRPRPKNWPRP	-0.0113
RRIRFRPPRLPRPRPRPSMWPRP	-0.579
RRIRCRPPRLPRPRPRPEHNPRP	-0.377
RRIRCRPPRLPRPRPRPIETPRP	-0.0366
RRIRQRPPRLPRPRPRPCRNPRP	-0.0117
RRIRQRPPRLPRPRPRPICKPRP	-0.00411
RRIRVRPPRLPRPRPRPWLTPRP	-0.147
RRIRARPPRLPRPRPRPPMKPRP	0.303
RRIRLRPPRLPRPRPRPSDGPRP	-0.162
RRIRYRPPRLPRPRPRPAYYPRP	-0.318
RRIRKRPPRLPRPRPRPDREPRP	0.186
RRIRWRPPRLPRPRPRPFRQPRP	-0.0956
RRIRIRPPRLPRPRPRPRCQPRP	0.00087
RRIRVRPPRLPRPRPRPYLGPRP	-0.177
RRIRGRPPRLPRPRPRPRERPRP	0.789
RRIRIRPPRLPRPRPRPDTIPRP	-0.0883
RRIRLRPPRLPRPRPRPPTVPRP	0.026
RRIRTRPPRLPRPRPRPYAIPRP	-0.000694
RRIRHRPPRLPRPRPRPQYYPRP	-1.76
RRIRYRPPRLPRPRPRPVVEPRP	-0.34
RRIRGRPPRLPRPRPRPLICPRP	0.147
RRIRDRPPRLPRPRPRPDFFPRP	0.195
RRIRKRPPRLPRPRPRPLGFPRP	0.872
RRIRYRPPRLPRPRPRPTGDPRP	0.00498

Sequence	shrunken log2 fold change
RRIRCRPPRLPRPRPRPYCMPRP	-1.09
RRIRCRPPRLPRPRPRPERFPRP	0.00138
RRIRPRPPRLPRPRPRPWAFPRP	0.144
RRIRLRPPRLPRPRPRPETFPRP	0.0211
RRIRCRPPRLPRPRPRPWGTPRP	-0.0869
RRIRDRPPRLPRPRPRPCWLPRP	0.127
RRIRGRPPRLPRPRPRPSKHPRP	-0.0347
RRIRFRPPRLPRPRPRPSRVPRP	0.0914
RRIRGRPPRLPRPRPRPDCEPRP	1.44
RRIRVRPPRLPRPRPRPKLHPRP	-0.237
RRIRRRPPRLPRPRPRPMRFPRP	1.1
RRIRARPPRLPRPRPRPWVDPRP	-0.0331
RRIRNRPPRLPRPRPRPTSWPRP	-0.228
RRIRNRPPRLPRPRPRPQVLPRP	-0.0163
RRIRNRPPRLPRPRPRPHQYPRP	-0.458
RRIRTRPPRLPRPRPRPWLMPRP	-0.11
RRIRWRPPRLPRPRPRPLRAPRP	1.19
RRIRPRPPRLPRPRPRPVYSPRP	-0.297
RRIRKRPPRLPRPRPRPRKFPRP	0.106
RRIRMRPPRLPRPRPRPHIQPRP	-0.421
RRIRSRPPRLPRPRPRPCFAPRP	0.598
RRIRHRPPRLPRPRPRPQVYPRP	-0.21
RRIRVRPPRLPRPRPRPMYTPRP	-0.23
RRIRLRPPRLPRPRPRPREVPRP	0.59
RRIRHRPPRLPRPRPRPNPWPRP	-0.248

Sequence	shrunken log2 fold change
RRIRERPPRLPRPRPRPESRPRP	-0.0773
RRIRFRPPRLPRPRPRPIQYPRP	-0.451
RRIRNRPPRLPRPRPRPRMVPRP	-0.289
RRIRWRPPRLPRPRPRPAHFPRP	0.141
RRIRFRPPRLPRPRPRPWYDPRP	0.13
RRIRGRPPRLPRPRPRPWWTPRP	-0.124
RRIRIRPPRLPRPRPRPSISPRP	-0.046
RRIRERPPRLPRPRPRPKYHPRP	-0.57
RRIRCRPPRLPRPRPRPPAQPRP	1.18
RRIRERPPRLPRPRPRPMNIPRP	-0.847
RRIRGRPPRLPRPRPRPGREPRP	0.217
RRIRERPPRLPRPRPRPKFEPRP	-0.0495
RRIRIRPPRLPRPRPRPVNEPRP	-0.213
RRIRRRPPRLPRPRPRPPHQPRP	1.32
RRIRERPPRLPRPRPRPGYTPRP	0.0628
RRIRSRPPRLPRPRPRPGSNPRP	-0.00709
RRIRYRPPRLPRPRPRPLLVPRP	-0.692
RRIRRRPPRLPRPRPRPSKGPRP	-0.518
RRIRERPPRLPRPRPRPVPEPRP	-0.0948
RRIRQRPPRLPRPRPRPRIPPRP	0.206
RRIRQRPPRLPRPRPRPFQPPRP	0.0592
RRIRVRPPRLPRPRPRPECTPRP	0.464
RRIRRRPPRLPRPRPRPAQSPRP	0.247
RRIRMRPPRLPRPRPRPSDPPRP	-0.0636
RRIRIRPPRLPRPRPRPNNGPRP	-0.589

Sequence	shrunken log2 fold change
RRIRMRPPRLPRPRPRPYHDPRP	-0.256
RRIRDRPPRLPRPRPRPGRAPRP	0.478
RRIRPRPPRLPRPRPRPKWVPRP	0.111
RRIRCRPPRLPRPRPRPCRPPRP	-0.0339
RRIRTRPPRLPRPRPRPSMEPRP	-0.136
RRIRYRPPRLPRPRPRPWAPPRP	-0.289
RRIRKRPPRLPRPRPRPWELPRP	0.221
RRIRDRPPRLPRPRPRPATPPRP	0.276
RRIRNRPPRLPRPRPRPKHRPRP	0.0319
RRIRIRPPRLPRPRPRPLITPRP	-0.71
RRIRERPPRLPRPRPRPKDRPRP	-0.094
RRIRQRPPRLPRPRPRPPAFPRP	0.379
RRIRQRPPRLPRPRPRPEWAPRP	0.0739
RRIRFRPPRLPRPRPRPWAMPRP	-0.0609
RRIRIRPPRLPRPRPRPEATPRP	0.511
RRIRGRPPRLPRPRPRPKSGPRP	0.707
RRIRDRPPRLPRPRPRPNKDPRP	-0.951
RRIRFRPPRLPRPRPRPILRPRP	-0.156
RRIRVRPPRLPRPRPRPCELPRP	-0.286
RRIRRRPPRLPRPRPRPYAFPRP	0.0067
RRIRERPPRLPRPRPRPGLEPRP	-0.114
RRIRHRPPRLPRPRPRPFTCPRP	-0.231
RRIRPRPPRLPRPRPRPPKCPRP	-0.028
RRIRRRPPRLPRPRPRPGFQPRP	0.301
RRIRKRPPRLPRPRPRPLSWPRP	0.826
